Source: paper PMC11260014 (JTO Clinical and Research Reports, 2024)

How the values were obtained:
[1] = test system: ALK-positive NSCLC; details: monotherapy; phase 2 study, subgroups with prior ALK TKI treatment; cited from earlier work
[2] = Pharmacokinetics from blood samples; format: in vivo, human; details: serum, in combination with lorlatinib or crizotinib

Compound | Median PFS [1] | Ctrough level at steady state ([2]; at cycle 2) | Cmax on cycle 1 day 1 versus cycle 2 day 1 [2]
C[C@H]1Oc2cc(cnc2N)-c2c(nn(C)c2C#N)CN(C)C(=O)c2ccc(F)cc21 [Lorlatinib, lorlatinib] | 6.9–7.3 mo |  | 
avelumab |  | above 10 μg/mL | similar
